# Measurements as given in the supplement of paper PMC11908140.
# B1: library; numbered along this chain (parent)
# chain: MRKPRAAVGSGHRKQAASQEGRQKHAKNNSQAKPSACDGLARQPEEVVLQASVSSYHLFRDVAEVTAFRGSLLSWYDQEKRDLPWRRRAEDEMDLDRRAYAVWVSEVMLQQTQVATVINYYTGWMQKWPTLQDLASASLEEVNQLWAGLGYYSRGRRLQEGARKVVEELGGHMPRTAETLQQLLPGVGRYTAGAIASIAFGQATGVVDGNVARVLCRVRAIGADPSSTLVSQQLWGLAQQLVDPARPGDFNQAAMELGATVCTPQRPLCSQCPVESLCRARQRVEQEQLLASGSLSGSPDVEECAPNTGQCHLCLPPSEPWDQTLGVVNFPRKASRKPPREESSATCVLEQPGALGAQILLVQRPNSGLLAGLWEFPSVTWEPSEQLQRKALLQELQRWAGPLPATHLRHLGEVVHTFSHIKLTYQVYGLALEGQTPVTTVPPGARWLTQEEFHTAAVSTAMKKVFRVYQGQQPGTCMGSKRSQVSSPCSRKKPRMGQQVLDNFFRSHISTDAHSLNSAAQ
# Variants of: B1
# Test: 8OG:A repair function score (normalized; synonymous = 0, nonsense = -1) (normalized log-likelihood score); higher = more repair activity (WT-like)
# Conditions: with 8OG:A DNA repair reporter (GFP) in HEK-293 MUTYH KO cells
# Protocol: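 Saturation mutagenesis (NNN codon scan) of the MUTYH cDNA (521-aa nuclear isoform NM_001048174.1 / NP_001041639), stably expressed under doxycycline induction in HEK-293 MUTYH knockout cells. Cells were co-transfected with an 8OG:A-bearing GFP repair reporter plus mCherry and sorted 72 h later into GFP+ and GFP− bins, three replicates per tile. The Rosace log2 enrichment (GFP+ vs GFP−) was converted per tile to a normalized function score with synonymous variants centered at 0 and nonsense variants (codons 1-471) at -1; low-abundance variants were removed.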
row,Variant,8OG:A repair function score
1,K80H,0.00371
2,K80G,-0.194
3,S344N,0.0332
4,S344W,-0.0913
5,V465I,-0.0425
6,G353M,-0.178
7,G353I,-0.129
8,E341V,-0.0649
9,K492S,-0.0044
10,P494E,0.0133
11,I195G,-0.964
12,F453N,-1.25
13,R154G,-1.12
14,A51W,0.101
15,A51R,0.00957
16,Q181V,-0.114
17,Y121G,-1.09
18,R446A,-0.143
19,T417F,0.0432
20,G161T,-0.317
21,G161M,-0.776
22,Q363I,-0.184
23,Q363D,-0.431
24,V166A,-0.1

row,Variant,8OG:A repair function score
1,S296E,-0.0247
2,S296Q,-0.00136
3,W75N,-2.91
4,S197L,-1.13
5,H410I,-0.161
6,H410T,-0.322
7,H410K,-0.0723
8,L423C,0.0721
9,D502P,-0.0101
10,D502H,-0.0311
11,P338Q,-0.00645
12,A400Y,-0.116
13,A400P,-0.723
14,A400L,-0.241
15,T511S,-0.0121
16,E302C,-0.32
17,Q499I,0.0124
18,Q499M,0.00183
19,K333T,-0.137
20,A245R,-0.124
21,A245F,0.00779
22,A405C,0.144
23,A405K,0.0168
24,Q43I,0.0991

row,Variant,8OG:A repair function score
1,L290E,-0.0564
2,Q182C,-0.0792
3,L295W,-0.0272
4,F376G,-1.2
5,F376C,-0.559
6,L403G,-0.509
7,Q435N,-0.138
8,R336M,-0.117
9,R336S,-0.097
10,S71M,0.00635
11,S71P,-0.0398
12,F59T,-0.579
13,F59H,-0.439
14,T308E,-0.0446
15,N366H,0.288
16,G201E,-0.32
17,A223G,-0.111
18,R175G,-0.166
19,T66M,-0.0066
20,G170D,0.0788
21,E141P,-0.499
22,G479F,-0.00391
23,G479E,0.0225
24,M108N,-1.18

row,Variant,8OG:A repair function score
1,W374K,-0.692
2,Q252A,-0.658
3,E90K,0.00313
4,E90P,-0.164
5,G188E,-0.866
6,T346E,-1.03
7,R398T,-0.326
8,H514L,-0.0137
9,H514E,-0.0112
10,E79Q,-0.0185
11,E79A,0.00477
12,T228M,0.0193
13,T228F,-0.051
14,T228G,0.0678
15,W235K,-0.51
16,A280T,-0.13
17,A177M,-0.0819
18,A177G,-0.166
19,T263D,-0.24
20,L237W,-0.397
21,L237I,0.105
22,A41R,0.0859
23,Q426N,-0.05
24,Q426G,-0.158

row,Variant,8OG:A repair function score
1,G222N,-0.593
2,Q233N,-0.032
3,Q386I,0.129
4,Q78I,-0.00974
5,F466Y,0.00857
6,G412R,-0.598
7,G412E,-0.631
8,T476N,-0.0111
9,L373T,-0.0654
10,L373S,-0.647
11,L430H,-0.604
12,S226R,0.00193
13,V114W,-0.527
14,C216N,-0.84
15,L396I,-0.113
16,L396Q,-0.673
17,P299A,-0.0132
18,P299C,-0.0402
19,P365T,-0.334
20,V485M,0.0202
21,Q113Y,0.0661
22,Q113P,-0.116
23,A196I,-0.703
24,S294A,-0.012

row,Variant,8OG:A repair function score
1,E46I,0.0225
2,G434W,0.0509
3,L73R,-0.593
4,L73C,-0.0699
5,L73Y,-2.08
6,S138G,0.0657
7,M462I,-0.13
8,V415G,-0.172
9,P273D,-1.05
10,P273K,-0.708
11,P273Q,-0.798
12,R506C,0.0164
13,A334Y,0.0534
14,A334F,-0.0391
15,A334D,-0.242
16,A135Q,-0.686
17,A135W,-0.338
18,Q239S,-0.175
19,Q239K,-0.0216
20,Q239M,-0.146
21,E451G,-0.0413
22,E451L,-0.179
23,V48C,0.0424
24,V48K,0.119

row,Variant,8OG:A repair function score
1,H420M,-0.23
2,H420P,-0.877
3,W399D,-0.666
4,F68L,-0.141
5,V458W,-0.709
6,V458P,-0.535
7,Y120E,-0.482
8,Y152H,-0.695
9,G70C,0.00567
10,R219K,-0.381
11,A199K,-1.14
12,L169S,-0.284
13,L169K,-0.189
14,N329I,-0.365
15,A99Y,-0.837
16,N517V,-0.00815
17,Q310G,-0.0488
18,Q310M,-0.0144
19,Q310D,0.0119
20,T460Y,-0.219
21,S419F,-0.753
22,G236R,0.107
23,A445C,0.0578
24,K3W,-0.0484

row,Variant,8OG:A repair function score
1,K337R,0.000179
2,Q358I,-0.163
3,Q358V,0.112
4,Q358F,-0.316
5,R283T,-0.308
6,R283P,-0.625
7,A371T,-0.307
8,V242Q,-0.763
9,P225V,-0.0099
10,V53S,0.00307
11,P244E,-0.105
12,P244V,-0.427
13,K463W,-0.075
14,R340N,-0.24
15,R60P,-0.0757
16,P442M,0.0715
17,L315M,0.0419
18,Q126D,0.00176
19,V230L,-0.499
20,V230N,-0.687
21,Y76T,-1.06
22,Y151A,-0.816
23,Y151P,-1.25
24,A513P,-0.0105

row,Variant,8OG:A repair function score
1,L83H,-0.597
2,L83V,-0.316
3,L325S,-0.135
4,Q240F,-0.939
5,Q240V,-0.936
6,C347K,-1.08
7,C347R,-1.15
8,D208L,-1.03
9,M93V,0.00114
10,M93I,-0.0705
11,M93K,0.00623
12,N251I,-0.889
13,L369H,-0.345
14,R81W,-0.422
15,D300L,-0.189
16,L361T,-0.222
17,L229Q,-0.161
18,L229C,-0.201
19,P306V,-0.015
20,G368L,-0.532
21,V284P,-0.32
22,S487L,-5.82e-05
23,M125N,-0.838
24,M125V,-0.308

row,Variant,8OG:A repair function score
1,G186D,-0.855
2,Q394E,0.261
3,S227C,-0.0498
4,G39N,0.241
5,A192D,-0.927
6,R97I,0.00215
7,N210C,-0.854
8,A254S,-0.223
9,C272W,-1.09
10,K481W,-0.0431
11,T439W,0.0448
12,T439R,-0.0617
13,P402N,-0.282
14,S74K,-0.0253
15,R69D,-1.4
16,Q473V,0.00634
17,E433I,0.00922
18,I359Y,-0.266
19,V104Y,-1.27
20,S52C,-0.0302
21,S52N,-0.0834
22,S52R,0.00314
23,T455D,-0.394
24,I509K,-0.00442

row,Variant,8OG:A repair function score
1,I509D,-0.00523
2,I509H,0.0112
3,D94A,-0.329
4,V379I,-0.327
5,H454F,-0.268
6,H454C,0.0357
7,H454Q,-0.0422
8,A520C,-0.000175
9,A520R,0.027
10,E303F,-0.112
11,Q472K,-0.009
12,C262R,-1.05
13,C262M,-1.06
14,C262P,-1.18
15,S105Q,-0.69
16,A461V,-0.124
17,N119Y,-0.361
18,G444H,-0.155
19,G444Y,-0.204
20,V500G,0.00844
21,V500T,0.02
22,V500Q,0.00719
23,Q323G,-0.0264
24,M255A,-0.993

row,Variant,8OG:A repair function score
1,P377S,-0.809
2,P377K,-1.11
3,T191E,-0.898
4,T191F,-1.01
5,N307G,-0.0226
6,E106L,-1.25
7,E106K,-1.45
8,E106S,-1.21
9,A391P,-0.305
10,E385Q,0.29
11,E385G,-0.126
12,E385V,-0.0807
13,V414H,-0.326
14,Q498D,0.00936
15,D224W,-0.942
16,S343K,0.133
17,L158W,-0.991
18,L158N,-1.2
19,R279G,-0.388
20,S480L,-0.0111
21,V165M,-0.283
22,S510C,-0.0307
23,D249S,-0.402
24,V214R,-1.01

row,Variant,8OG:A repair function score
1,D91I,0.00656
2,E178F,-0.0911
3,E178P,-0.125
4,P247G,-0.799
5,S153I,-0.105
6,S153L,0.0439
7,S153M,-0.237
8,D512M,-0.033
9,D512A,-0.0123
10,D512C,0.0193
11,P437I,-0.277
12,P437T,-0.142
13,E319F,-0.211
14,E319C,-0.02
15,S378N,0.0818
16,S378M,-0.037
17,S378L,-0.171
18,E382P,0.149
19,C304R,-0.464
20,T406C,0.13
21,S298W,-0.00249
22,V362L,-0.0488
23,V362C,-0.232
24,G209V,-0.00522

row,Variant,8OG:A repair function score
1,Y428K,-0.832
2,P129N,-0.266
3,A63D,0.00576
4,G326K,-0.179
5,R156N,-0.179
6,R332N,-0.315
7,P443I,0.0878
8,P443G,-0.0689
9,E275M,0.00516
10,A431S,0.129
11,A431R,-0.0201
12,L448I,-0.0362
13,P34N,0.0767
14,P34Q,0.146
15,S136A,0.0607
16,M478H,-0.119
17,A220T,-0.62
18,Q351K,0.044
19,S459Q,-0.749
20,A6G,0.0165
21,A6R,-0.0747
22,L95M,0.0014
